Experimental data taken from patent US20250059278A1 (SICHUAN HUIYU PHARMACEUTICAL, published 2025).
Numbering of substitutions follows the chain as printed.

B1: Positive control antibody OKT3 (antibody, V domains shown)
VH: not shown
VL: QIVLTQSPAIMSASPGEKVTMTCSASSSVSYMNWYQQKSGTSPKRWIYDTSKLASGVPAHFRGSGSGTSYSLTISGMEAEDAATYYCQQWSSNPFTFGSGTKLEI
B2: CD3 monoclonal antibody M28 (antibody, human IgG1, lambda, V domains shown)
VH: EVQLVESGGGLVQPGGSLRLSCAASGFTFNTYAMNWVRQAPGKGLEWVARIRSKYNNYATYYADSVKDRFTISRDDSKSILYLQMNSLKTEDTAMYYCVRHHNFGNSYVSWFAYWGQGTLVTVSS
VL: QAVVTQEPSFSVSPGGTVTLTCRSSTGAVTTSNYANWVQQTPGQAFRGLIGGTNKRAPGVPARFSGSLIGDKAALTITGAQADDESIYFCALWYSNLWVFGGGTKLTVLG
notes: IgG: VH28 + IgG1 mutant CH, VL-1 + CL
B3: Control antibody 1 (antibody, V domains shown)
VH: B2 VH with G15K, R19K, K78Q, S87N, H102G, S125A
VL: QAVVTQESALTTSPGETVTLTCRSSTGAVTTSNYANWVQEKPDHLFTGLIGGTNKRAPGVPARFSGSLIGDKAALTITGAQTEDEAIYFCALWYSNLWVFGGGTKLTVL
notes: also called positive control antibody 1
B4: CD3 monoclonal antibody M1 (antibody, human IgG1, lambda, V domains shown)
VH: B2 VH with D68G, S87N, H102A, G105L
VL: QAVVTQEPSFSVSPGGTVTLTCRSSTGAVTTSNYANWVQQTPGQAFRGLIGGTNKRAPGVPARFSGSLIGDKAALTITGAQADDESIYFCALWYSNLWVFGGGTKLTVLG
notes: IgG: VH1 + IgG1 mutant CH, VL-1 + CL
B5: CD3 monoclonal antibody M29 (antibody, human IgG1, lambda, V domains shown)
VH: B2 VH with D68G, H102G, G105P, N106M
VL: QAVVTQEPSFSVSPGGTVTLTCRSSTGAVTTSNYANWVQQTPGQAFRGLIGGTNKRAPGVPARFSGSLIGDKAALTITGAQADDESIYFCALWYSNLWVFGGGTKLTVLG
notes: IgG: VH29 + IgG1 mutant CH, VL-1 + CL
B6: CD3 monoclonal antibody M22 (antibody, human IgG1, lambda, V domains shown)
VH: B2 VH with D68G, H102E, N103R
VL: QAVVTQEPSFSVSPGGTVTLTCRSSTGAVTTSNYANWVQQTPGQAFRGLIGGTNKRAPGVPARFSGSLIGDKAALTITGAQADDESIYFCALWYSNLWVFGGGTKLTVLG
notes: IgG: VH22 + IgG1 mutant CH, VL-1 + CL
B7: CD3 monoclonal antibody M26 (antibody, human IgG1, lambda, V domains shown)
VH: B2 VH with S87N, H102G, Y108Q, A113Q
VL: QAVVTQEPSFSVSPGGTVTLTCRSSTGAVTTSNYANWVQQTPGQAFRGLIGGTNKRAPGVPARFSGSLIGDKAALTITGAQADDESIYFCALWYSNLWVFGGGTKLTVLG
notes: IgG: VH26 + IgG1 mutant CH, VL-1 + CL
B8: CD3 monoclonal antibody M10 (antibody, human IgG1, lambda, V domains shown)
VH: B2 VH with I80S, M95V, H102S, G105R
VL: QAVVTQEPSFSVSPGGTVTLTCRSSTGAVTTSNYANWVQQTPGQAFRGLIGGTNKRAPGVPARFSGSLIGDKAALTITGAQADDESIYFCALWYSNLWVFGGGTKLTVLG
notes: IgG: VH10 + IgG1 mutant CH, VL-1 + CL
B9: CD3 monoclonal antibody M31 (antibody, human IgG1, lambda, V domains shown)
VH: B2 VH with D68G, S87N, M95V, H102S, A113E
VL: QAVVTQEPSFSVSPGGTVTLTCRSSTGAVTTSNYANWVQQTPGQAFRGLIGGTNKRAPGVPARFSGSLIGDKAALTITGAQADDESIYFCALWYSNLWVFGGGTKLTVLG
notes: IgG: VH31 + IgG1 mutant CH, VL-1 + CL
B10: CD3 monoclonal antibody M6 (antibody, human IgG1, lambda, V domains shown)
VH: B2 VH with D68G, I80S, H102G, G105Y, Y114H
VL: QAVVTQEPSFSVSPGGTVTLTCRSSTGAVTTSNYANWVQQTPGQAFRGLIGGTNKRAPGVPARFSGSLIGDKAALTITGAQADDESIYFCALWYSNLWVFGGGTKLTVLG
notes: IgG: VH6 + IgG1 mutant CH, VL-1 + CL
B11: CD3 monoclonal antibody M20 (antibody, human IgG1, lambda, V domains shown)
VH: B2 VH with I80S, M95V, H102G, A113Q
VL: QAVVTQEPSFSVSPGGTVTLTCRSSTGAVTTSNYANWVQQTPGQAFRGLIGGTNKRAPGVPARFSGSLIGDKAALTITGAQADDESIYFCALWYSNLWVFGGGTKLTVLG
notes: IgG: VH20 + IgG1 mutant CH, VL-1 + CL
B12: CD3 monoclonal antibody M3 (antibody, human IgG1, lambda, V domains shown)
VH: B2 VH with H102G, A113E
VL: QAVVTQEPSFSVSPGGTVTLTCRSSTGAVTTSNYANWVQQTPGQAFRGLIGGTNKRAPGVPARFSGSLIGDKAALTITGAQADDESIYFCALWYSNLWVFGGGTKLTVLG
notes: IgG: VH3 + IgG1 mutant CH, VL-1 + CL
B13: CD3 monoclonal antibody M34 (antibody, human IgG1, lambda, V domains shown)
VH: B2 VH with D68G, I80S, S87N, M95V, H102G, G105K, N106Q
VL: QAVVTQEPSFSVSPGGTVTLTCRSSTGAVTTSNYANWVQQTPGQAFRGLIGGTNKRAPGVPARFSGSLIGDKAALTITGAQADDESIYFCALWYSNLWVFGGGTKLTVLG
notes: IgG: VH34 + IgG1 mutant CH, VL-1 + CL
B14: CD3 monoclonal antibody M30 (antibody, human IgG1, lambda, V domains shown)
VH: B2 VH with H102S, S107G
VL: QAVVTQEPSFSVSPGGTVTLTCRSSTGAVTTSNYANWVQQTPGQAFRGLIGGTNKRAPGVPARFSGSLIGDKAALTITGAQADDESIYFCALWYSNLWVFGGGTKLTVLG
notes: IgG: VH30 + IgG1 mutant CH, VL-1 + CL
B15: CD3 monoclonal antibody M12 (antibody, human IgG1, lambda, V domains shown)
VH: B2 VH with D68G, I80S, S87N, H102S, G105P
VL: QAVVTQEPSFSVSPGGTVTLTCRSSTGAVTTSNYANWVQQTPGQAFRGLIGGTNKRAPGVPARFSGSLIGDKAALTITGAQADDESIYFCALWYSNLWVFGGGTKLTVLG
notes: IgG: VH12 + IgG1 mutant CH, VL-1 + CL
B16: CD3 monoclonal antibody M19 (antibody, human IgG1, lambda, V domains shown)
VH: B2 VH with M95V, H102G, Y108A, A113Q
VL: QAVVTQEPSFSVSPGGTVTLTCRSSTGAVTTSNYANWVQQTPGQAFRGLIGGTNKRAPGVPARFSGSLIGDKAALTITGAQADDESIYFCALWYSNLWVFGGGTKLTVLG
notes: IgG: VH19 + IgG1 mutant CH, VL-1 + CL
B17: CD3 monoclonal antibody M33 (antibody, human IgG1, lambda, V domains shown)
VH: B2 VH with D68G, I80S, M95V, H102G, S107N, Y114S
VL: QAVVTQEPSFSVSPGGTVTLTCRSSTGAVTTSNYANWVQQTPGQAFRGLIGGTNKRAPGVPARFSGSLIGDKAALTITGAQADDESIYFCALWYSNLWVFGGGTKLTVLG
notes: IgG: VH33 + IgG1 mutant CH, VL-1 + CL
B18: CD3 monoclonal antibody M7 (antibody, human IgG1, lambda, V domains shown)
VH: B2 VH with I80S, S87N, H101A, H102G, A113E
VL: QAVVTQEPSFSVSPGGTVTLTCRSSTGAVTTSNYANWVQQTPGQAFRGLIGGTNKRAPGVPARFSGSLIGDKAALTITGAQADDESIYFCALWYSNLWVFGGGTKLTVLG
notes: IgG: VH7 + IgG1 mutant CH, VL-1 + CL

Columns and labels:
[1] = biological target: T1, Monkey CD3 on cynomolgus HSC-F cells (cynomolgus monkey, UniProt Q95LI5 22-198; Q95LI7 23-181; Q95LI8 22-171); test: flow cytometry on HSC-F cells
T1 construct: whole, on cells; also called Monkey CD3-expressing cynomolgus HSC-F cells; cynomolgus monkey CD3-expressing HSC-F cells

[2] = biological target: T2, Human CD3 on Jurkat cells (human, UniProt P07766 23-207; P09693 23-182; P04234 22-171); test: flow cytometry on Jurkat cells
T2 construct: whole, on cells; also called Human CD3-expressing Jurkat cells; Jurkat (naturally expressing human CD3)

[3] = biological target: T3, Human CD3εγ recombinant antigen (acrobiosystems, Cat. No. CDG-H52W5) (human, UniProt P07766 23-126; P09693 23-116); test: SPR chip (Carterra), antibody captured, antigen in flow;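 note: antibodies captured through anti-human IgG Fc at roughly 1000 RU, kinetic constants fitted with a 1:1 binding model in Carterra analysis software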
T3 construct: Bought recombinant protein
Description: Antibodies at three concentrations of 4, 2, and 1 μg/mL were immobilized on the HC200M chip containing anti-human IgG Fc secondary antibody (Xantec, Cat. No.: HC200M), and the antibody binding amount was controlled to approximately 1000RU. […] The kinetic constants were obtained by fitting using the 1:1 binding model of Kinetics software from Carterra.

Binder | binding result [1] | EC50 [1] [nM] | EC50 [2] [nM] | Kd [3] [nM] | koff [3] [s⁻¹] | kon [3] [M⁻¹ s⁻¹]
B1 | no binding (tested: 2 µg/ml starting concentration) | – | – | – | – | –
B2 | – | 0.287 | 0.854 | 2.53 | 0.00237 | 938000
B3 | – | 0.487 | 0.473 | – | – | –
B4 | – | 0.117 | 0.581 | 2.57 | 0.0105 | 4.09e+06
B5 | – | 0.272 | 0.412 | 5.88 | 0.00776 | 1.32e+06
B6 | – | 2.31 | 2.55 | 3.33 | 0.00222 | 666000
B7 | – | 0.223 | 0.235 | 3.51 | 0.00543 | 1.55e+06
B8 | – | 0.194 | 1.23 | 2.15 | 0.00653 | 3.04e+06
B9 | – | 0.154 | 1.56 | 0.43 | 0.00126 | 2.92e+06
B10 | – | 0.172 | 0.169 | 3.63 | 0.00354 | 973000
B11 | – | 6.58 | 61.7 | 2.56 | 0.00232 | 908000
B12 | – | 0.315 | 0.261 | 1.36 | 0.0015 | 1.1e+06
B13 | – | 0.266 | 2.58 | 7.22 | 0.0034 | 471000
B14 | – | 0.347 | 0.302 | 2.93 | 0.00234 | 798000
B15 | – | 0.162 | 0.27 | 1.93 | 0.00768 | 3.97e+06
B16 | – | 0.238 | 0.19 | 1.57 | 0.00256 | 1.63e+06
B17 | – | 1.55 | 4.92 | 19.3 | 0.0054 | 280000
B18 | – | 0.69 | 1.71 | 2.39 | 0.0011 | 460000
